This note sets out measurements from article PMC5207153, “Differential Receptor Binding and Regulatory Mechanisms for the Lymphangiogenic Growth Factors Vascular Endothelial Growth Factor (VEGF)-C and -D*^([image sbox.jpg])” (The Journal of Biological Chemistry, 2016).

Sequences and labels used below:
B1: VEGF-DΔNΔC [human] / Recombinant human VEGFR-3-Fc chimera [human] (parent complex)
chain 1: FYDIETLKVIDEEWQRTQCSPRETCVEVASELGKSTNTFFKPPCVNVFRCGGCCNEESLICMNTSTSYISKQLFEISVPLTSVPELVPVKVANHTGCKCLPTAPRHPYS
chain 2: YSMTPPTLNITEESHVIDTGDSLSISCRGQHPLEWAWPGAQEAPATGDKDSEDTGVVRDCEGTDARPYCKVLLLHEVHANDTGSYVCYYKYIKARIEGTTAASSYVFVRDFEQPFINKPDTLLVNRKDAMWVPCLVSIPGLNVTLRSQSSVLWPDGQEVVWDDRRGMLVSTPLLHDALYLQCETTWGDQDFLSNPFLVHITGNELYDIQLLPRKSLELLVGEKLVLNCTVWAEFNSGVTFDWDYPGKQAERGKWVPERRSQQTHTELSSILTIHNVSQHDLGSYVCKANNGIQRFRESTEVIVHENPFISVEWLKGPILEATAGDELVKLPVKLAAYPPPEFQWYKDGKALSGRHSPHALVLKEVTEASTGTYTLALWNSAAGLRRNISLELVVNVPPQIHEKEASSPSIYSRHSRQALTCTAYGVPLPLSIQWHWRPWTPCKMFAQRSLRRRQQQDLMPQCRDWRAVTTQDAVNPIESLDTWTEFVEGKNKTVSKLVIQNANVSAMYKCVVSNKVGQDERLIYFYVTTIPDGFTIESKPSEELLEGQPVLLSCQADSYKYEHLRWYRLNLSTLHDAHGNPLLLDCKNVHLFATPLAASLEEVAPGARHATLSLSIPRVAPEHEGHYVCEVQDRRSHDKHCHKKYLSVQALEAPRLTQNLTDLLVNVSDSLEMQCLVAGAHAPSIVWYKDERLLEEKSGVDLADSNQKLSIQRVREEDAGRYLCSVCNAKGCVNSSASVAVEGSEDKGSME
B2: VEGF-DΔNΔC [human] / Recombinant human VEGFR-2-Fc chimera [human] (parent complex)
chain 1: B1 chain 1
chain 2: ASVGLPSVSLDLPRLSIQKDILTIKANTTLQITCRGQRDLDWLWPNNQSGSEQRVEVTECSDGLFCKTLTIPKVIGNDTGAYKCFYRETDLASVIYVYVQDYRSPFIASVSDQHGVVYITENKNKTVVIPCLGSISNLNVSLCARYPEKRFVPDGNRISWDSKKGFTIPSYMISYAGMVFCEAKINDESYQSIMYIVVVVGYRIYDVVLSPSHGIELSVGEKLVLNCTARTELNVGIDFNWEYPSSKHQHKKLVNRDLKTQSGSEMKKFLSTLTIDGVTRSDQGLYTCAASSGLMTKKNSTFVRVHEKPFVAFGSGMESLVEATVGERVRIPAKYLGYPPPEIKWYKNGIPLESNHTIKAGHVLTIMEVSERDTGNYTVILTNPISKEKQSHVVSLVVYVPPQIGEKSLISPVDSYQYGTTQTLTCTVYAIPPPHHIHWYWQLEEECANEPSQAVSVTNPYPCEEWRSVEDFQGGNKIEVNKNQFALIEGKNKTVSTLVIQAANVSALYKCEAVNKVGRGERVISFHVTRGPEITLQPDMQPTEQESVSLWCTADRSTFENLTWYKLGPQPLPIHVGELPTPVCKNLDTLWKLNATMFSNSTNDILIMELKNASLQDQGDYVCLAQDRKTKKRHCVVRQLTVLERVAPTITGNLENQTTSIGESIEVSCTASGNPPPQIMWFKDNETLVEDSGIVLKDGNRNLTIRRVRKEDEGLYTCQACSVLGCAKVEAFFIIEGAQEKTNLE

The first assay covers variants of B1. Nature of the assay: ELISA; The same amount of each VEGF-DΔNΔC variant was used; assays conducted three times; parent: 100; read off a plot.
Regarding chain 1 K8A, the percent of parent is around 87%.

As for chain 1 E5A, the percent of parent was around 99%.

Turning to chain 1 E12A, the percent of parent was around 100%.

For chain 1 Q15A, the percent of parent was around 110%.

Turning to chain 1 V9A, the percent of parent was around 100%.

For chain 1 E13A, the percent of parent is around 13%.

Regarding chain 1 L7A, the percent of parent is around 3%.

Turning to chain 1 D11A, the percent of parent is around 160%.

As to chain 1 I4A, the percent of parent is around 99%.

Turning to chain 1 Y2A, the percent of parent was around 23%.

Regarding chain 1 I10A, the percent of parent is around 9%.

With chain 1 T6A, the percent of parent is around 97%.

As to chain 1 R16A, the percent of parent is around 100%.

With chain 1 W14A, the percent of parent is around 72%.

As for chain 1 D3A, the percent of parent is around 96%.

With chain 1 F1A, the percent of parent is around 72%.

Variants of B2 are the subject of the next assay. Described as above.
For the variant chain 1 W14A, the percent of parent was around 62%.

Turning to chain 1 V9A, the percent of parent is around 110%.

For chain 1 I10A, the percent of parent is around 20%.

As to chain 1 Q15A, the percent of parent is around 110%.

Consider chain 1 R16A, for which the percent of parent is around 110%.

On to chain 1 E12A, for which the percent of parent was around 100%.

For the variant chain 1 E13A, the percent of parent is around 14%.

Turning to chain 1 T6A, the percent of parent was around 100%.

On to chain 1 I4A, for which the percent of parent is around 100%.

With chain 1 D3A, the percent of parent was around 95%.

For chain 1 K8A, the percent of parent was around 88%.

Take chain 1 F1A: the percent of parent is around 89%.

Turning to chain 1 E5A, the percent of parent was around 99%.

Turning to chain 1 L7A, the percent of parent is around 19%.

As for chain 1 D11A, the percent of parent was around 100%.

Consider chain 1 Y2A, for which the percent of parent was around 86%.
